From the nanobody polyreactivity screen of Harvey et al. (2022)

Experiment: yeast display, Sf9 membrane polyspecificity reagent, FACS + sequencing; frameworks hold sequencing errors
In short: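 Synthetic nanobody libraries on Saccharomyces cerevisiae BJ5465 were galactose-induced for 36–48 hours, stained 1 hour at 4 °C with 10% biotinylated, detergent-solubilized Sf9 membrane reagent and enriched on streptavidin microbeads. FACS then separated cells into low and high (top ~1%) gates by anti-HA (expression) and streptavidin (reagent binding) fluorescence. Genes were colony-PCR amplified, MiSeq 2 × 250 sequenced and CDR-length filtered. A clone's polyreactivity label is that of its gate of origin.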

Sequence | polyreactivity (PSR sort gate)
QVQLLESGGGLVQAGGSLRLTCAASVIIFYPYAMVWYRQAPGKERELVAAISIGGGSTYYADSVKGRFTISRDNAKNTVYLQMNSLKPEDTAVYYCAAGTPYGILGYYYWGQGTQVTVSS | low polyreactivity
QVQLLESGGGLVQAGGSLRLTCMASGSILGDRMSWYRQARGKEHELVATIYDGGITYYADSMKGRFTISRDNAKNTVYLQLNSLRPEDTAVYYCGASFEGYRYHVYCGQGTQVTVSS | low polyreactivity
QVQLLESGGGLVQAGGSRRLSCAASGSTFYGYAMGWYRQAPGKEREFVAAITTSGGSTYYADSVKGRFTISRDNAKNTVYLQMNSLKPEDTAVYYCAADAPSWYDRQYDYWGQGTQVTVSS | low polyreactivity
QVQLLESGGGLVQAGGTLRLSCAASGSIFFRNAMGWYRQAPGKERELVAAITWNGGSTYYADSVKGRFTISRDNAKNTVYLQMNSLKPDDTAVYYCNKYYYYRDSGYWGQGTQVTVSS | high polyreactivity
QVQLLESGGGLVQAGGTLRLSCAASGSTFRYNAMGWYRQAPGKERELVAAITSGGRTNYADSVKGRFTISRDNAKYTFYLQMNSLKPEDTGVYYCAARRYCRNWHNVYWGQGTQVTVSS | high polyreactivity
QVQLLESGGGLVQAGRSLRLSCSASGRTLVYNAMGWYRQAPGKERELVAGITNGGSTNYADSVKGRFTISRDTAKNTVYLQMNSLKPEDTAVYYCAADSRVYPYYFGDFGYWGQGTQVTVSS | low polyreactivity
QVQLLESGGGLVQAGVSLRLSCSASGFTFGRYAMGCYRQAHGKERELVAGITWSGGSTSYADSVKGRFTISRDNAKNTVYLQMNSLKPEDTAVYYCATRARYTRVHGRRYAYDYWGQGTQVTVSS | high polyreactivity
QVQLLESGGGLVQARGSLRLICAASGRIFTDNAMGWYIQAPGKERELVATISKRGGRTYYADSVKGRFTISRDNAKNTVYLQMNSLKPEDTAVYYCNARPYWIDGSGLFPYDYWGQGTQVTVSS | high polyreactivity
QVQLLESGGGLVQEGGSLRLSCAASGSIFEWYVMGWYRQAPGKERELVDTITSDCSSNYADSVKGRFTISRDNAKNTVYLQMNSLKPEDSAVYYCARDWRWDAWTRRGNDDGYWGQGTQVTVSS | low polyreactivity
QVQLLESGGGLVQSGGILRLSCAASGRNFGRYAMGLYRQAPGKERELLATITWRGGITYYADSVKGRFTISRDNAMNTVSLQMNSLKPEDSAVYYCAAGYGRIPYVYWGKGTQVTVSS | high polyreactivity
QVQLLESGGGLVQSGGSLRLSCAASGLTFGSNAMGWYRQATGKEREMVAAISYGGGSTSYADSVKGRFTISRDNAKNTVYLQMNSLKPEDTSVYYCAVVWLCAYSRTNYYYWGQGTQVTVSS | low polyreactivity
QVQLLESGGGLVQVGGSLRLSCAASGTIFIYGFLGWNRQAPGKERELVASINLGGITNYADSEKGRFTISRDNAINTGFLQMISLKPEDTAVYYCAAYVVTCQNYGYWGHGTQVTVSS | low polyreactivity
QVQLLESGGGVVQAGGSLRLSCAASGFTFLYNTMGGYRQAPGKVRELVAAISIRGGSTYYADSVKGRFTISRDNAKNTVYLQMNSLKPEDNAVYYCAARTPTPASRSRVYYWGHGTQVTVSS | high polyreactivity
QVQLLESGRGLDQAGGSLRLSCAASGGTYKTNPMGMYRQAPGKEMELVAAITGSGTSTYYADSVKGRFTISRDYAKNTVYLQMNSLNPEDTAVYYCAADKLYHPGIGDDYWGQGTQETVSS | low polyreactivity
QVQLLESVGGLVQAGGRLRLTCDATGSIFRYYAMGWYRQEPGKERELVATISSGGRTYYADSVKGRFTISRDNAKNTVYLQMNSLKPEDTAVYYCAKVGWSRRYYYWGQGTQVTVSS | high polyreactivity
QVQLLESWGGLVQAGGSLRLSCAASGFIFRGYAMGWYRQAPGKDRELVAAISTGGGRTYYADSVKGRFTISRDNAKNTVYLQMNSLKPDDTAVYYCIRRSYTQVLMDYWGQGTQVTVSS | high polyreactivity
QVQLLETGGGLVQAGGSLRLSCAPSGSTFYYYAMGWYRQAPGKEWELVAAISWSGVSTYYADSVKGRFTISRDNAKTTVYLQMNSLKPEDNAVYYCNADSYTLYGRYDYWGQGTQVTVSS | low polyreactivity
QVQLLETGRGLVQAGGSLRLSCAPSGITFRYYAMGWYRQAPGQERELVAAITRSGGSTYYADSVKGRFTLSRYNAKNTVYLQMNSLKPEDTAVYYCAAQPVSRHTGTFYRSNGYDYWGQVTQVTVSS | high polyreactivity
QVQLLQSGGGLVQAGGSLRLSCAASGFIFLGYAMGWYRQAPGNERELVAAISENSGTTSYADSVKGRFTISRDNAKNTVYLQMNSLKPEDTAVYYCAADSIGNYLLYDYWGQGTQVTVSS | low polyreactivity
QVQLPESGGGLLQAGGGLRLSCAASGSITSTGYMGWYRPAPGKEREPVAAIAAGTTTYYADSVKARFTISRDNAKNTVYLQMNCLRPEDTAVYYCAVFTDNRLAFLYWGQGTQVTVSS | low polyreactivity
QVQLQERAAWCRRAGSLRLSFAASGNISDYYFMGWYRQAPGKEREIFAAIAPGSNTFFADSVKGRFTISRDNATNTVYLQMNSLNPEDTAVYYCARQGTIYSYDIVYPRLDYWGQGTQVTVSS | low polyreactivity
QVQLQERGGGLVQAGGSLRQSCAASGTISDRAGMGWYRQAPAKNAIVATIDRGTNTNYADSVKGRFTISRDNAKNTVYLQMNSLKPEDTAVYNCAAVGRYNIYLDYWGQGTQVTVSS | low polyreactivity

Sequence | polyreactivity (PSR sort gate)
QVQLQESDGGLVQAGGSLRLSCAASGSISPQYYMGWYRQEPGKEREFVAISKGTTTYYADSVKGRLTISRVNAKNTVYLQMNSLKPEDTAVYCCAAGRWLQKVHAYWDQGTQVTVSS | low polyreactivity
QVQLQESDGGLVQAGGSLRLSCAASGSISPQYYMGWYRQEPGKEREYVAISKGTTTYYADSVKGRLTISRVNAKNTVYLQMNRLKPEDTAVYCCAAGRWLQKVHAYWDQGTQVTVSS | low polyreactivity
QVQLQESGAGLEQAGGSLRMSCAASGYSSDIGTMGWYRQAPGKEREFVATIVVGSTTNYADSVKGRFTISRDNAKNTVYLQPESGRYRGVLLRGWLLAVGKFTYWGQGTQETVSS | low polyreactivity
QVQLQESGAGLVQAGGSLRLTCAASGSIFLFYTMGWYRQAPVKEREFVAGITLGTTTYNADSVKGRFTISRDNVKNTVYLQMNSLKPEDTAVYYCAVAVGHYTEFWYWGQGTQVTMSS | high polyreactivity
QVQLQESGAGPVLAGGSLRLSCAASGTIYVRLDMGWYRQAPGKEREFVATIGSGSSTYYADSVKGSFTISRDNVKNTVYLQMNSLNPEVTAVYYCAVSAAEQSRHYYWAQGTQVTVSS | low polyreactivity
QVQLQESGCGLVQAGGCLSCTASGTIFGQGDMGWYRQAPGKERELVATINDGASTYYADSVKGRFTISRDKAKNTVYLQMNSLKPEDTAVYYCAAVIRPRYYQVRPRYDYWGQGTQVTVSS | low polyreactivity
QVQLQESGCGLVQAGGSLRLSCAASGNIFEADIMGWYHQAQGKERELVASITDGGSTNYADSVKGRFTINRDNAKNNVYLQMNSLKPEDTAVYSCAAIAYPDIPTYFDYDSDYFYWGQGTQVTVSS | high polyreactivity
QVQLQESGDGLLQAVGSLRLSCAASGYISGYYYMGWYRQAPGKERELVAGIDAFGSSTNYADCVKGRFTISRDNGKNTVYLQMNSLKPEDTAVYYCAARPDGDRLFSYWGQGTQVTVSS | low polyreactivity
QVQLQESGDGLVQAVGSLRLSCAASGYSSGYYYMGWYRQAPGKERELVAGIDAFGISTNYADCVKGRFTISRDNAKNTVYLQMTSLKPEDTAVYYCAARPDGDRLFSYWGQGTQVTVSI | low polyreactivity
QVQLQESGGGLAQAVGSLRLSCAASGNIFDPDIMGSYRQAPAKERELVGSITHGGSTNYVDSVKGRFTISRDNATNTVHLQMNRLKPVDTGVYYCAAIGYPDIPSYFDYDSDFFNWGHGTQVTVSS | high polyreactivity
QVQLQESGGGLEKACGSLRLSCAASVNISPRDAMCWYRQAPGEERDLVASNAYSAITYYADGVKGRYTISRDNAKNTVYLHMNSLKPEDTEVYYCAVYQFPYPVFPAYCGQGTQVTVSS | low polyreactivity
QVQLQESGGGLEQAGGSLRMSCAASGTIFSEANMGWYRQAPGKERELVATIGQGSTTNYADSVKGRFTISRDNAKNTVYLQMNSLKPEETPVYYCAVVTVDPVGFVYWGQGTQVTVSS | low polyreactivity
QVQLQESGGGLMQAGGSQRLSCAASGSISSYSDMGWYRQAPGKEREFVAGIGYGTTTNYADSVKGRFTTSRDNAKNTVYLQMISMKPEDTAVYYCAAYQGNGYEFYYWGQGTQVTVRS | low polyreactivity
QVQLQESGGGLMQAGGSQRLSCAASGSISYYSDRGWYRQAPGKEREFVAGIGYGTTTNYADSVKGRFTTSRDNAKNTVYLQMICMKPEDTAVYYCAAYQGNGYEFYYWGQGTQVTVRS | low polyreactivity
QVQLQESGGGLVHAAGILRLSCAACGNIFPSAVMGWYRQALGKEREFVATLNSGSNTYYADSVKGRFTIRRDNAKNTVYLQMNSLKLEDTGVYYCAAYFNLPAWHTYWGQGTQVTVSS | low polyreactivity
QVQLQESGGGLVHACGSLRPSCAASGSISDSWRMSWYRQAPGTEREFVAGITWGGTTNYADSVKGRFTISRDNAKNTVYLQMNSLKPEDTAVYYCNARQRTYYRTHRIRHKGNGYWGQGTQVTVSS | low polyreactivity
QVQLQESGGGLVHAGGSLRLSCAASGTISFINMMGWNRQAPGRERELVASINFGANTNYADSVKGRFTISRDNAKNTVYVQMNSLKPEDTAVYYCAVYDFDAYTLDYWGQGTLVTVSS | high polyreactivity
QVQLQESGGGLVHAGGSLRLSCAASGTISFINMMGWYRQAAGRERELVASINFGANTNYADSVKGRFTISRDNAKNTVYLQMNSLKPEDTAVYYCAVYDFDAYTLYYWGQGTLVTVSS | high polyreactivity
QVQLQESGGGLVHPGGSLRLSCAASCSISHYIFMGWYRQAPGKEREFVAGIGYGGTTNYADSVKGRFTISRDNAKNTVYLQMNSLKPEDTAMYYCAAREATEFYLYYWGQGTQVTVSS | low polyreactivity
QVQLQESGGGLVKAGGSLRLSCAASGNISNHNDMGWYRQAPGKEREFVAGITAGGNTNYADSVKGRFTISRDNAKNTVYLQMNSLKPEDTAVYYCAAYPDYAKSYGYWGQGTQATVSS | low polyreactivity
QVQLQESGGGLVKAGGSLRLSCAASGNISPRDAMGWYRQAPGEERDLVASNAYSAITYYADGVKGRYSISRDNAKNTVYLQMNSLKPEDTEVYYCAVYQFTYPVFPAYWGQGTQVSVSS | low polyreactivity
